Laboratory results taken from the DeepSol protein solubility set.

test: soluble on expression in E. coli; label from the status in PepcDB or PDB records

| Sequence | soluble on expression in E. coli |
| --- | --- |
| MAAVILESIFLKRSQQKKKTSPLNFKKRLFLLTVHKLSYYEYDFERGRRGSKKGSIDVEKITCVETVVPEKNPPPERQIPRRGEESSEMEQISIIERFPYPFQVVYDEGPLYVFSPTEELRKRWIHQLKNVIRYNSDLVQKYHPCFWIDGQYLCCSQTAKNAMGCQILENRNGSLKPGSSHRKTKKPLPPTPEEDQILKKPLPPEPAAAPVSTSELKKVVALYDYMPMNANDLQLRKGDEYFILEESNLPWWRARDKNGQEGYIPSNYVTEAEDSIEMYEWYSKHMTRSQAEQLLKQEGKEGGFIVRDSSKAGKYTVSVFAKSTGDPQGVIRHYVVCSTPQSQYYLAEKHLFSTIPELINYHQHNSAGLISRLKYPVSQQNKNAPSTAGLGYGSWEIDPKDLTFLKELGTGQFGVVKYGKWRGQYDVAIKMIKEGSMSEDEFIEEAKVMMNLSHEKLVQLYGVCTKQRPIFIITEYMANGCLLNYLREMRHRFQTQQLLEMCKDVCEAMEYLESKQFLHRDLAARNCLVNDQGVVKVSDFGLSRYVLDDEYTSSVGSKFPVRWSPPEVLMYSKFSSKSDIWAFGVLMWEIYSLGKMPYERFTNSETAEHIAQGLRLYRPHLASEKVYTIMYSCWHEKADERPTFKILLSNILDVMDEES | soluble |
| MACKNPKKFFPIRKSPVLRDGAFKGKLVLVTGGGTGIGKAIATTFAHLRATVVIAARRMEKLEQTARDITKITGGTCEPFQMDIKDPGMVSDAFDKIDMKFGKVPEILVNNAAGNFIMATELLSSNAYGTIIDIVLKGTFNVTTELGKRCIQNKTGASITSITAGYARAGAPFIVPSAVSKAGVETMTKSLATEWSKYGLRFNAVSPGPIPTKGAWGRLNSGEMGDIAEKMKFLNPEGRVGSPEEVANLVAFISSDHMSFLNGAIIDLDGGQQHFNHGSHMGDFLHSWDHKNWEDAENLIRGRTGKEKA | not soluble |
| MACLSPSQLQKFQQDGFLVLEGFLSAEECVAMQQRIGEIVAEMDVPLHCRTEFSTQEEEQLRAQGSTDYFLSSGDKIRFFFEKGVFDEKGNFLVPPEKSINKIGHALHAHDPVFKSITHSFKVQTLARSLGLQMPVVVQSMYIFKQPHFGGEVSPHQDASFLYTEPLGRVLGVWIAVEDATLENGCLWFIPGSHTSGVSRRMVRAPVGSAPGTSFLGSEPARDNSLFVPTPVQRGALVLIHGEVVHKSKQNLSDRSRQAYTFHLMEASGTTWSPENWLQPTAELPFPQLYT | soluble |
| MADDGVNPKAFPLADTNLSQKLMDLVQQAMNYKQLKKGANEATKTLNRGISEIIVMAADAEPLEILLHLPLLCEDKNVPYVFVRSKAALGRACGVTRPVIAASITQNEGSQLKSQIQKIKEDVEKLLI | not soluble |
| MADEIAKAQVARPGGDTIFGKIIRKEIPAKIIFEDDQCLAFHDISPQAPTHFLVIPKKHISQISAAEDADESLLGHLMIVGKKCAADLGLKKGYRMVVNEGSDGGQSVYHVHLHVLGGRQMNWPPG | soluble |
| MADEQEIMCKLESIKEIRNKTLQMEKIKARLKAEFEALESEERHLKEYKQEMDLLLQEKMAHVEELRLIHADINVMENTIKQSENDLNKLLESTRRLHDEYKPLKEHVDALRMTLGLQRLPDLCEEEEKLSLDYFEKQKAEWQTEPQEPPIPESLAAAAAAAQQLQVARKQDTRQTATFRQQPPPMKACLSCHQQIHRNAPICPLCKAKSRSRNPKKPKRKQDE | not soluble |
| MADKDTYTGFCIIKEGTKISKSGWEVLSFTTQEASGEGAGNGLAKCLIDGDTETFWHAKWQGGSDPLPYDIVIDMKQNIQIAQVELLPRGRGSNNPIKVVEFAASEDNVNWTPIGRFGFTNQDAALEYYVKSIKARYIRLTIPDDGGNSTVAAIRELDVKGTIINLEHHHHHH | soluble |
| MADKSAEKERLFNEWFTASYDRLRGTLRRYGMLDEDNFHDTYLFVRRQVLVPGKDITDYDAYFIGCYKKAALVKIKRENRYAHPEDDFFLRCGEEAKFLSEDDLNGCERLVRDILRFVRQKFSYEEYRMFMLRFYEAQFSFKALAECMGISASAISQKVCRIVDAVRTHSGFAWRSQMLAVESFMY | not soluble |
| MADLERYLKRARGGRVVRTGFLDPEDQARLEEMARREGIRVAFFGGFPLAERKVAVLYPEEVPSVSDPVEVVLLDRPPPADLGEVLGEVEEVEEGVLAALLPEGRKALEAQGYRLLPPPEGALRPPRERVRTLVVPSLRVDAVGAKGFGVSRSYFAQGVKAGKVRLKGRPASPKDELAPGDLLFAEGLGTLRLLEVVGKTVRGNYKIKVEVER | soluble |
| MADRLIVKGAREHNLRSVDLDLPRDALIVFTGLSGSGKSSLAFDTIFAEGQRRYVESLSAYARQFLGQMDKPDVDFIEGLSPAVSIDQKSTNRNPRSTVGTITEVYDYLRLLYARAGTPHCPTCGERVARQTPQQIVDQVLAMPEGTRFLVLAPVVRTRKGEFADLFDKLNAQGYSRVRVDGVVHPLTDPPKLKKQEKHDIEVVVDRLTVKAAAKRRLTDSVETALNLADGIVVLEFVDHELGAPHREQRFSEKLACPNGHALAVDDLEPRSFSFNSPYGACPECSGLGIRKEVDPELVVPDPDRTLAQGAVAPWSNGHTAEYFTRMMAGLGEALGFDVDTPWRKLPAKARKAILEGADEQVHVRYRNRYGRTRSYYADFEGVLAFLQRKMSQTESEQMKERYEGFMRDVPCPVCAGTRLKPEILAVTLAGESKGEHGAKSIAEVCELSIADCADFLNALTLGPREQAIAGQVLKEIRSRLGFLLDVGLEYLSLSRAAATLSGGEAQRIRLATQIGSGLVGVLYVLDEPSIGLHQRDNRRLIETLTRLRDLGNTLIVVEHDEDTIEHADWIVDIGPGAGEHGGRIVHSGPYDELLRNKDSITGAYLSGRESIEIPAIRRSVDPRRQLTVVGAREHNLRGIDVSFPLGVLTSVTGVSGSGKSTLVNDILAAVLANRLNGARQVPGRHTRVTGLDYLDKLVRVDQSPIGRTPRSNPATYTGVFDKIRTLFAATTEAKVRGYQPGRFSFNVKGGRCEACTGDGTIKIEMNFLPDVYVPCEVCQGARYNRETLEVHYKGKTVSEVLDMSIEEAAEFFEPIAGVHRYLRTLVDVGLGYVRLGQPAPTLSGGEAQRVKLASELQKRSTGRTVYILDEPTTGLHFDDIRKLLNVINGLVDKGNTVIVIEHNLDVIKTSDWIIDLGPEGGAGGGTVVAQGTPEDVAAVPASYTGKFLAEVVGGGASAATSRSNRRRNVSA | soluble |
| MADTGEVQFMKPFISEKSSKSLEIPLGFNEYFPAPFPITVDLLDYSGRSWTVRMKKRGEKVFLTVGWENFVKDNNLEDGKYLQFIYDRDRTFYVIIYGHNMCSEYRDFPQVAVEVDDYENGEEEEDGDDQDKHQ | soluble |
| MADTRPERRFTRIDRLPPYVFNITAELKMAARRRGEDIIDFSMGNPDGATPPHIVEKLCTVAQRPDTHGYSTSRGIPRLRRAISRWYQDRYDVEIDPESEAIVTIGSKEGLAHLMLATLDHGDTVLVPNPSYPIHIYGAVIAGAQVRSVPLVEGVDFFNELERAIRESYPKPKMMILGFPSNPTAQCVELEFFEKVVALAKRYDVLVVHDLAYADIVYDGWKAPSIMQVPGARDVAVEFFTLSKSYNMAGWRIGFMVGNKTLVSALARIKSYHDYGTFTPLQVAAIAALEGDQQCVRDIAEQYKRRRDVLVKGLHEAGWMVEMPKASMYVWAKIPEPYAAMGSLEFAKKLLNEAKVCVSPGIGFGDYGDTHVRFALIENRDRIRQAIRGIKAMFRADGLLPASSKHIHENAE | soluble |
| MADYLLEIGLEEIPAHLVTESENQLIERIKNFFSDNLLDYKKIQTFSTPRRLAVLVHDLSNYSQSKDEELRGPSLKVAKDESGNWSRAAEGFARSQGTSPAEFDERDGYVYLNKHIEGVSAEEILKKIGIEVVEKMKFSTYMKWADFKLEYVRPIRWLVSLLDSKIVPFQILDVKADRFTRGHRFLSGGKISISEAGDYEETLNNAYVIVDAKVRKNSIRNQIRKIADTNDWNLHVDPDLLEEVNNIVEYPTAFAGVFDDKYLNLPEIVLTTSMRDNQRFFYVTNKQGKILPHFISVRNGDSNQIENVVKGNEKVLVARLEDAEFFFEEDQKHNIDFFMKKAERLVFHEKIGTMTEHMKRVEKIAALLANQLAFNDQEKKDLKRAANICKFDLTTAMVGEFAELQGTMAGIYAKIFGENQTVCQALSEQYLPTSSEGDLPKSKVGAMLALADKLDTLFSFFAAGIIPSGSNDPYGLRRAALGIVRIIGQQKWNFSVSKLLHSLKTAVDKHEDGFLIDFADTKEISRKVIEFFLDRIRQQSSDIRYDLLDASTGKVNEGIINY | not soluble |
| MAEAPPVSGTFKFNTDAAEFIPQERKTSGLNCGTQRRLDSSRIGRRNYSSSPPCHLPRHIPYEDISAVHQHSYASGSKPKSPQGFFQSSNKSLKNHGLQNQPWQKARNEKHQNRNKKAQGLSEQTSDTSSLESVARSESGTNPREHSPSESEKEVVIADPRGAKPKKAAQLTYNYGRGPKAKGRLRSEWGNRMSPKSEDENTRPVAISHTDSSDASCRKPVVDPCVCRRNEQRRYPQKRPPWEVEGARPRPGRNPPKQESQRHINAGPKTNMSPIPKDNLRERPTKSACDTGNLAVVSKSSRRVNQEKTAVRRQDPQVLSPFPRGKQNHMLKNVETHTGSLIEQLTTEKYECMVCCELVQVTAPVWSCQSCFHVFHLNCIKKWARSPASHADGQSGWRCPACQNVSAHVPNTYTCFCGKVKNPEWSRNEIPHSCGEVCRKKQPGQDCPHSCNLLCHPGPCPPCPAFTTKTCECGRTRHTVRCGQPVSVHCSNACENILNCGQHHCAELCHGGQCQPCRIILNQVCYCGSTSRDVLCGTDVGKSDGFGDFSCLKICGKDLKCGSHTCSQVCHPQPCQPCPRLPHLVRYCPCGQTPLSQLLEHGSNARKTCMDPVPSCGKVCGKPLACGSSDFIHTCEKLCHEGDCGPCSRTSVISCRCSFRTKELPCTSLKSEDATFMCDKRCNKKRLCGRHKCNEICCVDKEHKCPLICGRKLRCGLHRCEEPCHRGNCQTCWQASFDELTCHCGASVIYPPVPCGTRPPECTQTCARIHECDHPVYHSCHSEEKCPPCTFLTQKWCMGKHEELTIKKLWTFKETLDF | soluble |
| MAEDGPQKQQLDMPLVLDQDLTKQMRLRVESLKQRGEKKQDGEKLLRPAESVYRLDFIQQQKLQFDHWNVVLDKPGKVTITGTSQNWTPDLTNLMTRQLLDPAAIFWRKEDSDAMDWNEADALEFGERLSDLAKIRKVMYFLITFGEGVEPANLKASVVFNQL | soluble |
| MAEEKVKDEAMQIMGMFQILPRLVVFDLDYTLWPFYCECRSKREMPSMYPQAKGILSALKEKGIEMAIASRSPTSDIANTFLDKLNIKPMFVAKVSKMGVTSILVGDGVTLGAFRQGLTEFTQNHNSIEKNKQVWRDKYSGKPTSSETDKD | soluble |
| MAEETQTVETVEEQVVPEAKQPQDEKKYTDADVDAIIDKKFAKWKSEQEAEKSEAKKMAKMNEKEKADYEKQKLLDELQELKNDKTRNELTAVARQMFAESEINVNDDVLGLVVTLDAEQTKANVTTLANAFAKVIADDRKALVRQTTPSTGGGLSKQTNYGANLASKAAQQSTKLF | not soluble |
| MAEFRIAQDVVARENDRRASALKEDYEALGANLARRGVDIEAVTAKVEKFFVAVPSWGVGTGGTRFARFPGTGEPRGIFDKLDDCAVIQQLTRATPNVSLHIPWDKADPKELKARGDALGLGFDAMNSNTFSDAPGQAHSYKYGSLSHTNAATRAQAVEHNLECIEIGKAIGSKALTVWIGDGSNFPGQSNFTRAFERYLSAMAEIYKGLPDDWKLFSEHKMYEPAFYSTVVQDWGTNYLIAQTLGPKAQCLVDLGHHAPNTNIEMIVARLIQFGKLGGFHFNDSKYGDDDLDAGAIEPYRLFLVFNELVDAEARGVKGFHPAHMIDQKHNVTDPIESLINSANEIRRAYAQALLVDRAALSGYQEDNDALMATETLKRAYRTDVEPILAEARRRTGGAVDPVATYRASGYRARVAAERPASVAGGGGIIGSHHHHHH | soluble |
